Reference: patent publication US20260125478A1 (VIELA BIO, published 2026)

Columns and labels:
[1] = molecular target: T1, human FcγRIIA 131H on blood cells of 131H/H donors (human, UniProt P12318 34-317); test: cell-based or functional assay
T1 sequence (looked up): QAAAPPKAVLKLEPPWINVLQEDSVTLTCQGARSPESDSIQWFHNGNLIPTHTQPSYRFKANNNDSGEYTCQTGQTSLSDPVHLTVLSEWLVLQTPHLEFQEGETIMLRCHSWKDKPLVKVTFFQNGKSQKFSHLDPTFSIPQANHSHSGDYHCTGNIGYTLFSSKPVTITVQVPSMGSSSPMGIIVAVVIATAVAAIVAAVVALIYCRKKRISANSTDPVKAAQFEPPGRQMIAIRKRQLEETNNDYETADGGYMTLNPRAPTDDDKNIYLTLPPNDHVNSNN

[2] = molecular target: T2, human FcγRIIA 131R on blood cells of 131R/R donors (human, UniProt P12318 34-317); test: cell-based or functional assay
T2 sequence: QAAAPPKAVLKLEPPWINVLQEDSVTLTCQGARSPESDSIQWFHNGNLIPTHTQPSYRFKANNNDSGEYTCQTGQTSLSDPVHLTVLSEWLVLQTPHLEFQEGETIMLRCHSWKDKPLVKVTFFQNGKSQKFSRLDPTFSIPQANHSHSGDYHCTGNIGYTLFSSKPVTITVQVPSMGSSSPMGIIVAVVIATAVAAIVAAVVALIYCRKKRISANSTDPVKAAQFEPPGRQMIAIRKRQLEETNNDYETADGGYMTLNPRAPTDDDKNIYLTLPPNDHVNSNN

[3] = molecular target: T1, human FcγRIIA 131H on blood cells of …; test: cell-based or functional assay; remark: listed apart in the source
[4] = molecular target: T2, human FcγRIIA 131R on blood cells of …; test: cell-based or functional assay; remark: listed apart in the source
[5] = molecular target: cynomolgus monkey FcγRIIA on blood cells (cynomolgus monkey); test: cell-based or functional assay
[6] = molecular target: T3, Human CD32A 131R extracellular domain, 6xHis_Flag tagged (human, UniProt P12318 34-217); test: Biacore; IgG1-TM captured on a Protein G chip, CD32A as analyte, 1:1 Langmuir fit, average of two experiments
T3 construct: also called Hu CD32A_131Arg; human CD32A_131 Arg
T3 chain: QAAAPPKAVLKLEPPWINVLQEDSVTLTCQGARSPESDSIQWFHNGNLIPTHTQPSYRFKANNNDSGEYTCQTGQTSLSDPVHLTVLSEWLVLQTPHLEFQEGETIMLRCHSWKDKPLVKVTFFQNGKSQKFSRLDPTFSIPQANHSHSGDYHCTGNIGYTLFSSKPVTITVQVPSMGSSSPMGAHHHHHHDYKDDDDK

[7] = molecular target: T4, Human CD32A 131H extracellular domain, 6xHis_Flag tagged (human, UniProt P12318 34-217); test: as above
T4 construct: Used unlabelled as the analyte in Biacore; also called Hu CD32A_131His
T4 sequence: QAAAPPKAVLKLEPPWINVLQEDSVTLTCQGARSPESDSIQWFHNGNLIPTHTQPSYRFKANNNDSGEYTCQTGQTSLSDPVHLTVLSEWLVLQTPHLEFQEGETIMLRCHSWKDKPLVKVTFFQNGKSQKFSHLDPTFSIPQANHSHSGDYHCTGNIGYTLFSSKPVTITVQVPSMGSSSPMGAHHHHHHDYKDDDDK

[8] = molecular target: T5, cynomolgus CD32A version 3, 6xHis tagged (cynomolgus monkey); test: as above
T5 construct: also called Cyno CD32A; cyno CD32A (version 3)
T5 chain: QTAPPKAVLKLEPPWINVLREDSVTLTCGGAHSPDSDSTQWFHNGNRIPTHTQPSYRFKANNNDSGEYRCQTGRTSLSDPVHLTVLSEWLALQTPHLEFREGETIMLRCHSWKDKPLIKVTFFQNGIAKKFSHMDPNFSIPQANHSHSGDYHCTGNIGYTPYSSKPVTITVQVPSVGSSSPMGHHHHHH

[9] = molecular target: T4, Human CD32A 131H extracellular domain, …; test: HTRF epitope competition: sample IgG titrated against binding of mouse IV.3 IgG to biotinylated human CD32A 131H
Experimental: Subsequently, a potential […] site was removed in VL CDR1 (N28L) to reduce the risk of chemical modification during manufacture.
5 μl is added to the assay plate (384 black, shallow well, Costar, 3676), to give a final concentration of 2.0 nM. […] 5 μl of each IgG sample is transferred to the assay plate using a MiniTrak™ (Perkin Elmer). […] Assay plates were incubated for 3 hours at room temperature prior to reading time resolved fluorescence at 620 nm and 665 nm emission wavelengths using an EnVision plate reader (Perkin Elmer).

[10] = molecular target: T4, Human CD32A 131H extracellular domain, …; test: HTRF epitope competition; competitor IV.3 IgG on biotinylated human CD32A 131H

B1: chimeric IV.3 (human IgG1-TM) (antibody, V domains shown)
VH: QIQLVQSGPELKKPGETVKISCKASGYTFTNYGMNWVKQAPGKGLKWMGWLNTYTGESIYPDDFKGRFAFSSETSASTAYLQINNLKNEDMATYFCARGDYGYDDPLDYWGQGTSVTVSS
VL: DIVMTQAAPSVPVTPGESVSISCRSSKSLLHTNGNTYLHWFLQRPGQSPQLLIYRMSVLASGVPDRFSGSGSGTAFTLSISRVEAEDVGVFYCMQHLEYPLTFGAGTKLELK
notes: also called parent IV.3 chimeric Ab; chimeric IV.3 antibody
- EC50 of FcγRIIA internalization from the monocyte surface (whole blood FACS assay) [1]: 0.19 nM
- EC50 of FcγRIIA internalization from the monocyte surface (whole blood FACS assay) [2]: 0.2 nM
- IC50 of the loss of surface FcγRIIA (M.F.I of IV.3-Alexa 647) on monocytes, whole blood, 2 h at 37 °C [3]: 0.191 nM
- IC50 of the loss of surface FcγRIIA (M.F.I of IV.3-Alexa 647) on monocytes, whole blood, 2 h at 37 °C [4]: 0.198 nM
- IC50 of the loss of surface FcγRIIA (M.F.I of IV.3-Alexa 647) on cynomolgus monocytes, whole blood, 2 h at 37 °C [5]: 7.82 nM
- Kd [6]: 0.22 nM
- koff [6]: 0.00129 s⁻¹
- kon [6]: 5.95e+06 M⁻¹ s⁻¹
- Kd [7]: 0.22 nM
- koff [7]: 0.000681 s⁻¹
- kon [7]: 3.03e+06 M⁻¹ s⁻¹
- Kd [8]: 44.1 nM
- koff [8]: 0.204 s⁻¹
- kon [8]: 4.63e+06 M⁻¹ s⁻¹
- IC50 (read off the curve) [9]: ~2 nM

B2: fully humanized IV.3 IgG1 (VH and VL fully humanized, before Y36F and N28L) (antibody)
chain 1: QVQLVQSGAEVKKPGASVKVSCKASGYTFTNYGMNWVRQAPGQRLEWMGWLNTYTGESIYPDDFKGRVTITRDTSASTAYMELSSLRSEDTAVYYCARGDYGYDDPLDYWGQGTLVTVSS
chain 2: DIVMTQSPLSLPVTPGEPASISCRSSKSLLHTNGNTYLHWYLQKPGQSPQLLIYRMSVLASGVPDRFSGSGSGTDFTLKISRVEAEDVGVYYCMQHLEYPLTFGQGTKLEIK
- fold loss of potency in the IV.3 epitope competition assay (the next sentence compares with the mouse IgG) [10]: 10 fold
